Source: the supplement of paper PMC10065799, “High-throughput profiling of sequence recognition by tyrosine kinases and SH2 domains using bacterial peptide display” (eLife, 2023)

Columns and labels:
[1] = test system: AncSZ; experiment: phosphorylation enrichment, bacterial display (enrichment ratio); higher = better substrate or ligand; peptides without Tyr show the background
[2] = target: EPHB1 (UniProt P54762); experiment: as above
[3] = target: EPHB2 (UniProt P29323); experiment: as above
[4] = target: FGFR1 (UniProt P11362); experiment: as above
[5] = target: FGFR3 (UniProt P22607); experiment: as above
[6] = test system: Fer (mouse); experiment: as above
[7] = target: Fes (UniProt P07332); experiment: as above
[8] = target: Fyn (UniProt P06241); experiment: as above
[9] = target: Hck (UniProt P08631); experiment: as above
[10] = target: Jak2 (UniProt O60674); experiment: as above
[11] = target: MERTK (UniProt Q12866); experiment: as above
[12] = test system: c-Abl (mouse); experiment: as above
[13] = test system: c-Src; experiment: as above
[14] = target: Grb2 SH2 (UniProt P62993); experiment: SH2 binding enrichment of the phosphorylated peptide, bacterial display (enrichment ratio); higher = better substrate or ligand; peptides without Tyr show the background
[15] = target: SHP2-C SH2; experiment: as above
[16] = target: c-Src SH2; experiment: as above
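Throughout, for SH2 binding enrichment of the phosphorylated peptide, bacterial display: peptide library displayed on the E. coli surface as eCPX fusions, selected cells deep-sequenced, score is each peptide's frequency after selection divided by its frequency in the input.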
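Throughout, for phosphorylation enrichment, bacterial display: 11-residue human phosphosite peptides and single-mutation variants displayed on the E. coli surface, counted by deep sequencing, each peptide's frequency after selection divided by its frequency in the unselected input library; frequency after pTyr selection over input frequency; kinase dosed for 20-30% of maximal phosphorylation in three min.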

Sequence of Grb2 SH2 (P62993 whole entry, looked up): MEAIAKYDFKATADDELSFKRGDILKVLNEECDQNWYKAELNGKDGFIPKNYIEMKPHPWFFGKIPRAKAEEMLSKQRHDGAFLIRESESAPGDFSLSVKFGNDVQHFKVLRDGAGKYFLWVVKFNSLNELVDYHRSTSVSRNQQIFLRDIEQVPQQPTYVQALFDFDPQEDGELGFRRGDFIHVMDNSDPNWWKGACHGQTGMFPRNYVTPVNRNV
Sequence of EPHB2 (P29323 whole entry, looked up): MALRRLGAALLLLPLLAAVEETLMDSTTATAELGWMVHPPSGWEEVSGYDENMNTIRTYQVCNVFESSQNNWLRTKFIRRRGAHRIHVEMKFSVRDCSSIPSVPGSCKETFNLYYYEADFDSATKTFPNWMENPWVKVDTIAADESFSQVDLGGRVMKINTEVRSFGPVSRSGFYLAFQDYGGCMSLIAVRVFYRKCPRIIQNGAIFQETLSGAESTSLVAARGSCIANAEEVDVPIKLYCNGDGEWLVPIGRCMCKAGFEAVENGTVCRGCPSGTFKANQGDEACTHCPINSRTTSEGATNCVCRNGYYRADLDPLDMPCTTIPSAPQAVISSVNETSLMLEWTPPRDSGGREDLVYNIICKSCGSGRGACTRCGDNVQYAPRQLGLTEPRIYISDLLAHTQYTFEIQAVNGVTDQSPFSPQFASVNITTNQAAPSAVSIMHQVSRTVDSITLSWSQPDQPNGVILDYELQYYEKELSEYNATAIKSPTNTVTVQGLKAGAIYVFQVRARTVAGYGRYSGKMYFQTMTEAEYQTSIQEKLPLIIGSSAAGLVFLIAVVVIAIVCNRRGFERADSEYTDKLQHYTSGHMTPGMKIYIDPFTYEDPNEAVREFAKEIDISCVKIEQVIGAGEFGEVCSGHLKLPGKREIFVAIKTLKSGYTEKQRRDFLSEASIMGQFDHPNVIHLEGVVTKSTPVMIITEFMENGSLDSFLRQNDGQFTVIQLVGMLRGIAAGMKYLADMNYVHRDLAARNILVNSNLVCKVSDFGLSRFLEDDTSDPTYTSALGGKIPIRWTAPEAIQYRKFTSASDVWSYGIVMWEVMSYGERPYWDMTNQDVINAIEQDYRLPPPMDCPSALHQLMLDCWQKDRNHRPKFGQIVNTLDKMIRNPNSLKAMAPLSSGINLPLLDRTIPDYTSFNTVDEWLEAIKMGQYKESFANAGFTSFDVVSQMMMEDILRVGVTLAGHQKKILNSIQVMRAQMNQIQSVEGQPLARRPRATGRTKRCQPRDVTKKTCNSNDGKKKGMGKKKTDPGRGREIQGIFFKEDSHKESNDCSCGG
Sequence of FGFR3 (P22607 whole entry, looked up): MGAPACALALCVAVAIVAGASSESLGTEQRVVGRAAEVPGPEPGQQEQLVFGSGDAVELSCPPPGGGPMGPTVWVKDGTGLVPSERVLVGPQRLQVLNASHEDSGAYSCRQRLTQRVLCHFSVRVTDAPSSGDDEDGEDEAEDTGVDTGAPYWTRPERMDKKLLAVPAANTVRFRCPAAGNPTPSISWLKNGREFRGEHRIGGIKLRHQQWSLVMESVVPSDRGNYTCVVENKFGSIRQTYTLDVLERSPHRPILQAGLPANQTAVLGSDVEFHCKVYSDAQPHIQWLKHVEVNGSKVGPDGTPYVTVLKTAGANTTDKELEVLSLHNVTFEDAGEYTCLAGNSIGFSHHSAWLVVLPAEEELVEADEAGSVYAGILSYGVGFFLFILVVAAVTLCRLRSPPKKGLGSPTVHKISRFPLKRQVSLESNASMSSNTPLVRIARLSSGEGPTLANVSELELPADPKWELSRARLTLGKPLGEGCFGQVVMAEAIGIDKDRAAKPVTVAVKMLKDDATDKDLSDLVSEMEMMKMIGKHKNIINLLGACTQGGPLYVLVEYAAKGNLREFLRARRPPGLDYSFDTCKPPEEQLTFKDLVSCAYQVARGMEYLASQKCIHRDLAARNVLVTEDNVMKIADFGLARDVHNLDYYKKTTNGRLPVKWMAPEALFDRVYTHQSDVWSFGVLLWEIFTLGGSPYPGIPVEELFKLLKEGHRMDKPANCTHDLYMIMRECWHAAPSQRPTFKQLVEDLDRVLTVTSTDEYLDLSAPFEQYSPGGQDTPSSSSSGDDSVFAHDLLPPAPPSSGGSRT
Sequence of Jak2 (O60674 whole entry, looked up): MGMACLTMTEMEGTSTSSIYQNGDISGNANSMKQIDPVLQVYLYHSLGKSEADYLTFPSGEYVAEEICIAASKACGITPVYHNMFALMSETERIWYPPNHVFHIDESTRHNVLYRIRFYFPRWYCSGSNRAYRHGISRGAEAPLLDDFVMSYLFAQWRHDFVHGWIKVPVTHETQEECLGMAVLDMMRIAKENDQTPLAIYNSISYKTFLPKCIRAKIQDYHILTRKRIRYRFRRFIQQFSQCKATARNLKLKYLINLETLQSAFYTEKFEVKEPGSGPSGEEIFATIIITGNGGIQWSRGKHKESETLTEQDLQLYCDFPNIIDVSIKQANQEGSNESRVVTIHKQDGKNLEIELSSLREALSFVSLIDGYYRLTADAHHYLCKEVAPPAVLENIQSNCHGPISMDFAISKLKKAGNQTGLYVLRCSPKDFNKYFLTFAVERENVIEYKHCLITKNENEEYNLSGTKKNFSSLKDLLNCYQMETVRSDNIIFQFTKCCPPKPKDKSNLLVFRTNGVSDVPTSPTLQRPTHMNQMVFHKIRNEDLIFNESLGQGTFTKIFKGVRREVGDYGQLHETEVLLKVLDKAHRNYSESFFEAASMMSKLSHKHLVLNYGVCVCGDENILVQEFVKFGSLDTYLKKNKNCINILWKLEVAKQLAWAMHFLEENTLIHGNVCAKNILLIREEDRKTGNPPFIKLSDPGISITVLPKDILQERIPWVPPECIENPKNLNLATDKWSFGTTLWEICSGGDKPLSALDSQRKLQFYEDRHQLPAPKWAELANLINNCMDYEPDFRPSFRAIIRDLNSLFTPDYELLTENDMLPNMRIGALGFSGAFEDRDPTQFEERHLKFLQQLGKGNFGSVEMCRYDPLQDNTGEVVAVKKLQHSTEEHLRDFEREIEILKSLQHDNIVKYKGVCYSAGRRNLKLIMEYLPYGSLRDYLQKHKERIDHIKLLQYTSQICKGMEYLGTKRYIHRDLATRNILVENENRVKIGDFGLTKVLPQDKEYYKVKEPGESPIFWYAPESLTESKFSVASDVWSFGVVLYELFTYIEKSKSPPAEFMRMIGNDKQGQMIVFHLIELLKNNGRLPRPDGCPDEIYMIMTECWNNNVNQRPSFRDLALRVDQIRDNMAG
Sequence of MERTK (Q12866 whole entry, looked up): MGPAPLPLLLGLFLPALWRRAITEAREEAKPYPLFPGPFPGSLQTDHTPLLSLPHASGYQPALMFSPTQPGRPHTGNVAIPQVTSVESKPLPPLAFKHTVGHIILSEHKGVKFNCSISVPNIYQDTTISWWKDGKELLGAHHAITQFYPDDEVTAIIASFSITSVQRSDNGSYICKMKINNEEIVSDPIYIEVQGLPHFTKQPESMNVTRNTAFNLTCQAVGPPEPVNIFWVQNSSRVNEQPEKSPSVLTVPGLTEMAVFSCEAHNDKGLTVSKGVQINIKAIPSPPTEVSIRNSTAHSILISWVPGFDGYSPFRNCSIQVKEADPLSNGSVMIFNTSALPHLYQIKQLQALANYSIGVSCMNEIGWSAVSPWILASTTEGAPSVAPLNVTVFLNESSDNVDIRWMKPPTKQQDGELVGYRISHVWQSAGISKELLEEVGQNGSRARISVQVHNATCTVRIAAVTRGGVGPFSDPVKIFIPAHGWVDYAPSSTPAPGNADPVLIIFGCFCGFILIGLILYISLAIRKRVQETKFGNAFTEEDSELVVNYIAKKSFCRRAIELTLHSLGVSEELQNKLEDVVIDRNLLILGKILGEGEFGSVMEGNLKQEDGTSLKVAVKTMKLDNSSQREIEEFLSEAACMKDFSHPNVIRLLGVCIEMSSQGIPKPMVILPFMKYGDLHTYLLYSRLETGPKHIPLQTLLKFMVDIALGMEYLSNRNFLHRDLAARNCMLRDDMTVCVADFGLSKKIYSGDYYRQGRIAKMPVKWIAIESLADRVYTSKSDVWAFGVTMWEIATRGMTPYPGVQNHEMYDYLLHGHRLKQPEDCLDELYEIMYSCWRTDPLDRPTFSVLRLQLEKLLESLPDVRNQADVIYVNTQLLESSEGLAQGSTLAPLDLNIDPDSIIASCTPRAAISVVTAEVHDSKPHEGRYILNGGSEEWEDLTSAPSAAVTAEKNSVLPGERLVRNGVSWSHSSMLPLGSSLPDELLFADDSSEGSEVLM
Sequence of Fyn (P06241 whole entry, looked up): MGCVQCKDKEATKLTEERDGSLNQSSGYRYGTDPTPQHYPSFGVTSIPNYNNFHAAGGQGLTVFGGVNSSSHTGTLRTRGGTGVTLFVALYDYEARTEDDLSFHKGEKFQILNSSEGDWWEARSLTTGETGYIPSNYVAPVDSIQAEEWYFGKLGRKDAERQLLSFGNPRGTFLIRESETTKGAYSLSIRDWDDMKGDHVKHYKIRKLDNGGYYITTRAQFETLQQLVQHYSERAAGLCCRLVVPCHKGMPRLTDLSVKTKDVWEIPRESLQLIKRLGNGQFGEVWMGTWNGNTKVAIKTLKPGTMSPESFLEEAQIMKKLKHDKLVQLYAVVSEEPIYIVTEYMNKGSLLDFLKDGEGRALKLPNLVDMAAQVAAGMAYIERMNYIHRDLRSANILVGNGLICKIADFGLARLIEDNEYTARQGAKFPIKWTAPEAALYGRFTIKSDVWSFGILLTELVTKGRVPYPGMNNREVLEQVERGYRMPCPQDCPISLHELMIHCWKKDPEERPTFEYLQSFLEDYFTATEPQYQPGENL

Sequence	phosphorylation enrichment [1]	phosphorylation enrichment [2]	phosphorylation enrichment [3]	phosphorylation enrichment [4]	phosphorylation enrichment [5]	phosphorylation enrichment [6]	phosphorylation enrichment [7]	phosphorylation enrichment [8]	phosphorylation enrichment [9]	phosphorylation enrichment [10]	phosphorylation enrichment [11]	phosphorylation enrichment [12]	phosphorylation enrichment [13]	SH2 binding enrichment [14]	SH2 binding enrichment [15]	SH2 binding enrichment [16]
LSCLAYSGKDA [FXN_Y205_S202C]	1.23	0.844	0.643	0.495	0.976	0.525	1.44	0.52	0.527	1.24	0.558	1.15	0.665	0.719	0.626	0.537
LSRDVYEEDSY [RET_Y900]	1.39	0.535	0.685	0.656	0.968	0.416	1.39	0.503	0.771	1.55	0.699	0.906	0.719	0.652	0.726	0.978
LSSLAYSGKDA [FXN_Y205]	0.859	0.819	0.702	0.66	0.671	0.615	0.703	0.809	0.579	0.75	0.307	0.85	0.47	0.683	0.885	0.59
LSVEIYDRREF [ITGB7_Y753_YF]	1.26	0.428	0.483	0.498	0.824	0.595	1.25	0.946	2.83	0.958	0.522	0.569	1.01	0.985	0.648	0.542
LTFDEYRNISQ [ANXA3_Y216]	1.82	1.01	0.782	1.23	1.49	1.08	1.93	0.854	1.08	1.58	0.498	1.13	0.643	2.68	0.585	0.49
LTMAPYSSVSV [FAM81A_Y24_L29V]	1.05	0.683	0.531	0.653	0.899	9.11	1.08	0.575	0.724	0.933	0.527	0.811	1.07	0.783	3.6	3.26
LTRDIYKNDFF [ROS1_Y2110_A2106T_YF]	0.974	0.683	0.495	1.05	0.963	0.937	1.07	0.836	0.717	0.79	0.723	0.673	0.475	1.48	0.731	0.395
LTTEAYEWEPR [ELMOD3_Y61]	1.69	1.11	1.24	1.08	1.06	1.07	1.89	1.1	0.943	1.16	0.724	0.831	1.31	0.744	0.64	0.823
LTYHMYADPNF [SOS1_Y618]	2.15	4.48	6.29	4.45	3.01	1.09	1.88	6.26	4.13	2.66	5.2	7.02	8.75	0.955	1.28	6.8
LVLIKYLPEWT [PSEN1_Y240_F237L]	1.19	0.827	0.611	0.547	1.08	0.597	1.43	0.501	0.569	1.44	0.56	1.07	0.463	2.06	1.99	1.21
LVMFIDAIFGM [SCN1A_Y1684_Y1684D]	2.28	2	1.67	1.07	2.33	1.63	3.65	1.13	1.38	1.79	1.1	1.74	0.91	1.15	1.15	0.698
LVMFIYVIFGM [SCN1A_Y1684_A1685V]	0.694	0.496	0.615	0.583	0.604	0.366	0.673	0.517	0.571	0.477	0.365	0.468	0.275	2.05	1.49	1.1
LYIDSYEKDVA [PGM1_Y521]	1.81	0.816	1.15	0.895	1.14	0.798	1.5	0.77	0.659	1.24	0.717	0.45	0.69	0.86	0.589	0.817
LYNQDYPIHCV [GATM_Y227_S231C]	0.811	0.614	0.592	2.66	1.64	0.632	0.954	0.639	0.767	0.754	0.463	0.625	0.558	0.902	0.689	0.638
MAFDRYAAICS [OR8H2_Y123_H120Y_YF]	1.15	0.893	0.998	0.548	0.641	0.597	1.3	0.479	0.76	1.2	0.889	0.95	0.576	0.853	0.881	1.93
MAFDRYVAVCA [OR52J3_Y125]	0.845	0.649	0.7	0.519	0.582	0.468	1.08	0.438	0.537	0.995	0.522	0.779	0.458	0.746	0.647	0.663
MCDKEYYSVHN [MET_Y1234_Y1230C]	1.79	0.625	0.865	5.1	3.33	0.594	0.862	0.684	0.734	1.31	0.478	0.566	1.02	1.13	0.908	1.16

Sequence	phosphorylation enrichment [1]	phosphorylation enrichment [2]	phosphorylation enrichment [3]	phosphorylation enrichment [4]	phosphorylation enrichment [5]	phosphorylation enrichment [6]	phosphorylation enrichment [7]	phosphorylation enrichment [8]	phosphorylation enrichment [9]	phosphorylation enrichment [10]	phosphorylation enrichment [11]	phosphorylation enrichment [12]	phosphorylation enrichment [13]	SH2 binding enrichment [14]	SH2 binding enrichment [15]	SH2 binding enrichment [16]
MDDDQYALLTT [EFCAB6_Y675]	1.39	0.677	0.785	1.1	1.18	0.736	1.26	0.64	0.956	0.996	0.632	0.732	0.64	0.841	0.544	0.695
MDYRSYPREYG [RBM10_Y44]	0.621	0.337	0.402	0.404	0.684	0.331	0.626	0.366	0.41	0.515	0.296	0.472	0.319	0.752	0.591	0.476
MGGSVYFSFPD [HIKESHI_Y55_YF]	1.55	1.09	0.991	3.19	2.85	0.55	1.32	4.01	2.64	1.94	3.89	1.12	5.05	0.892	0.908	0.662
MGSFNYLGFAW [SPTLC2_Y178_R183W_YF]	1.17	2.34	1.09	0.971	1.03	0.559	1.16	0.547	0.588	1.85	0.681	0.768	0.72	0.676	0.601	0.385
MPLDQYSPSFP [FGFR1_Y776]	0.857	0.399	0.617	0.631	0.79	0.654	0.941	0.496	0.6	0.917	0.595	0.706	0.552	1.08	0.803	0.518
MSRDIYSTDFF [NTRK1_Y676_YF]	0.852	5.71	6.8	2.6	1.65	1.63	1.04	6.12	4.34	0.726	10.4	0.631	5.13	1.01	1.09	0.512
MSRNLYSGDCF [DDR2_Y736_Y740C_YF]	1.01	2.02	1.97	0.793	0.968	0.911	1	1.71	2.12	0.903	5.87	0.739	1.93	0.837	0.595	0.929
MVTSGYKAKMI [EFR3A_Y447_T451M]	0.563	0.401	0.528	0.384	0.389	0.393	0.589	0.355	0.39	0.695	0.414	0.552	0.435	0.871	0.469	0.539
NACGLYFKLHN [GATA2_Y376_YF]	1.26	0.552	0.496	0.437	0.722	0.425	0.979	0.427	0.491	1.21	0.466	0.784	0.358	0.899	0.686	0.449
NCLRVYVAGRF [CRB1_Y711_E710V]	1.71	0.497	0.627	0.447	0.758	0.434	1.15	0.535	0.414	1.08	0.339	1.03	0.567	1.11	0.97	0.678
NDQPDYDSVAS [GIT2_Y392]	1.3	0.63	0.671	0.522	0.76	0.558	1.19	0.546	0.735	1.23	0.511	0.849	0.992	0.902	0.767	0.658
NFRRGYHLQVL [CD200R1L_Y138_H135R]	0.621	0.379	0.473	0.462	0.528	0.439	0.699	0.416	0.386	0.528	0.394	0.486	0.38	0.847	0.713	0.753
NFRTIYVNANE [KCNH2_Y475_T474I]	0.659	0.543	0.5	0.417	0.529	0.428	0.775	0.423	0.525	0.717	0.367	0.509	0.44	19	8.36	3.07
NFYEYYVDDPP [GCHFR_Y48]	2.53	5.35	6.26	5.94	4.76	6.58	1.29	5.21	2.65	1.23	6.46	0.877	4.3	0.709	0.505	0.679
NGTVTYAIIAG [CDH23_Y1672_V1675I]	1.1	2.83	1.12	0.628	0.746	0.503	1.28	0.968	1.31	0.989	2.68	0.892	1.33	0.78	16.6	1.43
NHFKRYNLCAE [PTEN_Y68_I67R_YF]	0.638	0.384	0.565	0.456	0.471	0.419	0.668	0.459	0.449	0.59	0.485	0.678	0.538	0.949	0.618	0.644
